Earlier results in patent US20230002502A1, “METHODS AND PRODUCTS FOR REDUCING SIDE EFFECTS ASSOCIATED WITH USE OF IMMUNE AGONIST ANTIBODIES” (South Australian Health and Medical Research Institute …, priority 2019, published 2023).
Entries after “also recorded” stand apart in the source; their conditions may differ. Read-outs that look alike come from different tables or passages of the source.

System: patients
Conditions: for toxicity reported in clinical trials: patients

urelumab: an anti-CD137 IAA, IgG4
clinical trial results at lower dose (8 mg/patient, alone or in combination with anti-PD1): overall disappointing results
toxicity reported in clinical trials: severe dose-dependent liver toxicity; also recorded: high rates of dose dependent liver toxicity, resulting in several deaths
toxicity reported in clinical trials (listed as Urelumab): severe (grade 3 and above) liver damage
